According to patent publication US9243280:
Entries after “also recorded” stand apart in the source; their conditions may differ.

How the values were obtained:
[1] = molecular target: Ribosomal protein S1 bearing the C-terminal degradation peptide tag (UniProt P0AG67)
[2] = tested on: GFP fusion with aminoglycoside acetyltransferase (AAC)
[3] = molecular target: Ribosomal protein S1 bearing the C-terminal control peptide tag (UniProt P0AG67)

In the case of “ClpXP protease (complex of a hexamer of the ClpX unfoldase and the 14-mer ClpP protease)”, the “amount of S1-deg present 25, 35, and 45 minutes post induction, quantified against a dilution series on an immunoblot” value [1] is reported as “less than 0.5% of the level present prior to induction”, the “level of S1-deg after induction of ClpP-X (anti-FLAG immunoblot of total protein)” value [1] is reported as “the level of S1-deg was reduced to approximately 50% by 15 minutes; also recorded: to trace levels at 25 minutes and beyond” and the “number of colony-forming units on plates under inducing against non-inducing conditions” value [1] is reported as “expression of ClpP-X reduced the number of colony-forming units by more than a million-fold when the strain relied on S1-deg for growth”. The “in vitro degradation at 30 degrees C with ClpX, ClpP, ATP and an ATP regeneration system (SDS-PAGE, Coomassie staining)” value [2] was “By 80 minutes, all of the substrate (10-fold over ClpX6) was degraded”, the “colony formation on plates with arabinose (ClpP and ClpX induced)” value [3] was “Colony formation by the rpsA-cont strain was unaffected by ClpP-X expression” and the “level of S1-cont after induction of ClpP-X (anti-FLAG immunoblot of total protein)” value [3] was “The induction of ClpP-X in the rpsA-cont strain did not alter the level of S1-cont throughout the time course”.
